T1: 14-3-3, P63104
T1 chain: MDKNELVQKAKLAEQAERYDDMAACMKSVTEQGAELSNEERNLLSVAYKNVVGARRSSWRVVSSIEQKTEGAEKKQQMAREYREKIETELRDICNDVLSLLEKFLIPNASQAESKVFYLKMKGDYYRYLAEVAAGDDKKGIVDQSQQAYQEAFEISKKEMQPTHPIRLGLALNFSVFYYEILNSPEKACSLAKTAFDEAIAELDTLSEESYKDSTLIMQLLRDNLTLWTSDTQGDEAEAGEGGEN

B1: GST-BAD wild type, full length (pEBG-BAD), Q61337 S111A; S112A (protein)
chain: MGTPKQPSLAPAHALGLRKSDPGIRSLGSDAGGRRWRPAAQSMFQIPEFEPSEQEDASATDRGLGPSLTEDQPGPYLAPGLLGSNIHQQGRAATNSHHGGAGAMETRSRHAAYPAGTEEDEGMEEELSPFRGRSRSAPPNLWAAQRYGRELRRMSDEFEGSFKGLPRPKSAGTATQMRQSAGWTRIIQSWWDRNLGKGGSTPSQ
B2: GST-BAD wild type, full length (pEBG-BAD), Q61337 S112A (protein)
chain: B1 chain with A111S
B3: GST-BAD wild type, full length (pEBG-BAD), Q61337 S112A; S136A (protein)
chain: B1 chain with A111S, S136A
B4: GST-BAD wild type, full length (pEBG-BAD), Q61337 S136A (protein)
chain: B1 chain with A111S, A112S, S136A
B5: GST-BAD wild type, full length (pEBG-BAD), Q61337 S111A; S112A; S136A (protein)
chain: B1 chain with S136A
B6: GST-BAD wild type, full length (pEBG-BAD), Q61337 S111A (protein)
chain: B1 chain with A112S
B7: GST-BAD wild type, full length (pEBG-BAD), Q61337 S111A; S136A (protein)
chain: B1 chain with A112S, S136A

Data on 7 molecules can be found in PMC3214075.

Where a chain is given by its changes, count along the chain named. Numbers in names are those of the source.

The assay addresses T1, 14-3-3, P63104. As to the kind of experiment: GST pull-down, Western blot densitometry. The following applies: chain shown with the change; 293T cell extracts, glutathione beads; two blots quantified; parent: est. 1.5; read off a plot. (In general: In western blotting, separated proteins are transferred to a membrane and probed.)
As to B1, the response (IB:14-3-3/total 14-3-3) was 1.9.
For the molecule B2, the response (IB:14-3-3/total 14-3-3) was found to be 1.8.
With B3, the response (IB:14-3-3/total 14-3-3) worked out at 0.19.
As to B4, the response (IB:14-3-3/total 14-3-3) stood at 0.17.
Then B5, with 0.22; and B6, with 1.7.
Turning to B7, the response (IB:14-3-3/total 14-3-3) was 0.2.
